Patent US20190055295A1

Target: human FSH receptor (human) (UniProt P23945)
Assay: cell-based or functional assay

human FSH receptor (human), sequence (P23945 18-695): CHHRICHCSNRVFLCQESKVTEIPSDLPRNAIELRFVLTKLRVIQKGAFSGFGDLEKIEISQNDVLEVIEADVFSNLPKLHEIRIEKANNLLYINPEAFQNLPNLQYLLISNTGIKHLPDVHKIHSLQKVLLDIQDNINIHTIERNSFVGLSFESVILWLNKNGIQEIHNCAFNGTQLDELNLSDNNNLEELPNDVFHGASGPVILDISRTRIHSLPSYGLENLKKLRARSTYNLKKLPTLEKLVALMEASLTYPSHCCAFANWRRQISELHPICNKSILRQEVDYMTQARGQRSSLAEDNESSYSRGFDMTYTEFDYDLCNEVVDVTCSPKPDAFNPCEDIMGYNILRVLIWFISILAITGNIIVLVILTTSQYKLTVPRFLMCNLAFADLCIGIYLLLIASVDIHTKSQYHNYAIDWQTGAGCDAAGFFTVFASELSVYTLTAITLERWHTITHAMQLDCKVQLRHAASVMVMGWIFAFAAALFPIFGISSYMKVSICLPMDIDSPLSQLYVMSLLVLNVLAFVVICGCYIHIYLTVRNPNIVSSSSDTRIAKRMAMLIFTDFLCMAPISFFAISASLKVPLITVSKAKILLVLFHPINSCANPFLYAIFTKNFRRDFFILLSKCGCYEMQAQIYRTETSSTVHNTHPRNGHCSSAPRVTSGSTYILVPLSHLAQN

50% effective concentration (EC50) of cAMP production in CHO-FSHR cells: 0.204 nmol/L
in vitro biological activity relative to Gonal-F (cAMP production in CHO-FSHR cells): 50%
Substance: FSH-Fc/Fc heterodimer (from UniProt P01215 25-116; P0DOX5 223-449) (Fc fusion)
